Results published in publication PMC9482650, “Quantitative fragmentomics allow affinity mapping of interactomes” (Nature Communications, 2022).

T1: FRMPD1, Q5SYB0
T1 sequence (Q5SYB0 52-145, limits assumed, looked up): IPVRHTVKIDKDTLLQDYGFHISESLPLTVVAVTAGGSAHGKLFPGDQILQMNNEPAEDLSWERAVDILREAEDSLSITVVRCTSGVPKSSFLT

T2: MPP2, Q14168
T2 sequence (Q14168 180-250, limits assumed, looked up): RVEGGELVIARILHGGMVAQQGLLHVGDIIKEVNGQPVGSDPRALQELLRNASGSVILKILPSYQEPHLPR

T3: PARD3B_1, Q8TEW8
T3 sequence (Q8TEW8 196-299, limits assumed, looked up): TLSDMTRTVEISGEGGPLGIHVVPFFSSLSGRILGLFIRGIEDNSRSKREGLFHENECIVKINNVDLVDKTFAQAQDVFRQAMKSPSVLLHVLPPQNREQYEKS

T4: LNX2_3, Q8N448
T4 sequence (Q8N448 463-564, limits assumed, looked up): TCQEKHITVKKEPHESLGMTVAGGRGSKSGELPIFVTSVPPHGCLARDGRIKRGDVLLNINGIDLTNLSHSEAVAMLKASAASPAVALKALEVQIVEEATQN

T5: RADIL, Q96JH8
T5 sequence (Q96JH8 971-1071, limits assumed, looked up): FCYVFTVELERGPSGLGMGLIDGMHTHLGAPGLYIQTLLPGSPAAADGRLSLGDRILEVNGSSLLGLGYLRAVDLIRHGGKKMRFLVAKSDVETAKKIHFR

T6: CARD11, Q9BXL7
T6 sequence (Q9BXL7 662-765, limits assumed, looked up): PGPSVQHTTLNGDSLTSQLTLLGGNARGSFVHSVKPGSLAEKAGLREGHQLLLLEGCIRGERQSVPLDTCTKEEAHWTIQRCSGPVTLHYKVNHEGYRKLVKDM

T7: ARHGAP21, Q5T5U3
T7 sequence (Q5T5U3 45-169, limits assumed, looked up): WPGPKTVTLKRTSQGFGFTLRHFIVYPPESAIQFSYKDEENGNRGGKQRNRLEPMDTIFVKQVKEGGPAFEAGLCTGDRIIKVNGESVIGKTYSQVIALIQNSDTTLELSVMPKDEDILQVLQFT

T8: LIN7A, O14910
T8 sequence (O14910 103-200, limits assumed, looked up): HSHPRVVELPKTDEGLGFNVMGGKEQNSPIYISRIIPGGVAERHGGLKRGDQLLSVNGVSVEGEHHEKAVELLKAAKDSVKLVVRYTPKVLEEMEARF

T9: PDZRN3_1, Q9UPQ7
T9 sequence (Q9UPQ7 244-349, limits assumed, looked up): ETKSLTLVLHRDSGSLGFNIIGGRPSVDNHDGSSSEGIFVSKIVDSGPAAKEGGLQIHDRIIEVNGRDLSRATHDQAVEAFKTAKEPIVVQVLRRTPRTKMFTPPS

B1: KARS1, Q15046 (peptide)
chain: LESTTVGTSV
B2: PRR16, Q569H4 (peptide)
chain: ILRKSTTTTV

biological target: T1, FRMPD1, Q5SYB0; experiment: holdup assay; parameters: key: below the threshold = too weak to quantify, mostly under pKd 3.1 to 4; settings: plain residues with an end cap or a label only (N-terminal biotin on a linker: ado-ado)

Row | Binder | pKd
1 | B1 | below the threshold
2 | B2 | below the threshold

biological target: PTPN3, P26045; experiment: holdup assay; parameters: key: below the threshold = too weak to quantify, mostly under pKd 3.1 to 4; settings: plain residues with an end cap or a label only (N-terminal biotin on a linker: ado-ado)
Sequence (P26045 505-587): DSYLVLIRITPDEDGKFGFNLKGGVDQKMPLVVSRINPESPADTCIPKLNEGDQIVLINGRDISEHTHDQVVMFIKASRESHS

Row | Binder | pKd
3 | B1 | 4.82
4 | B2 | 3.92

biological target: T2, MPP2, Q14168; experiment: holdup assay; parameters: key: below the threshold = too weak to quantify, mostly under pKd 3.1 to 4; settings: plain residues with an end cap or a label only (N-terminal biotin on a linker: ado-ado)

Row | Binder | pKd
5 | B1 | below the threshold
6 | B2 | below the threshold

biological target: T3, PARD3B_1, Q8TEW8; experiment: holdup assay; parameters: key: below the threshold = too weak to quantify, mostly under pKd 3.1 to 4; settings: plain residues with an end cap or a label only (N-terminal biotin on a linker: ado-ado)

Row | Binder | pKd
7 | B1 | below the threshold
8 | B2 | below the threshold

biological target: MAGI1_1, Q96QZ7; experiment: holdup assay; parameters: key: below the threshold = too weak to quantify, mostly under pKd 3.1 to 4; settings: plain residues with an end cap or a label only (N-terminal biotin on a linker: ado-ado)
Sequence (Q96QZ7 1-106): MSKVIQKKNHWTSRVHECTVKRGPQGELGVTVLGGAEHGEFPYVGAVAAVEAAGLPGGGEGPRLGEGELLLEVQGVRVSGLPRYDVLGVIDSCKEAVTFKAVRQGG

Row | Binder | pKd
9 | B1 | 3.5
10 | B2 | below the threshold

biological target: FRMPD3, Q5JV73; experiment: holdup assay; parameters: key: below the threshold = too weak to quantify, mostly under pKd 3.1 to 4; settings: plain residues with an end cap or a label only (N-terminal biotin on a linker: ado-ado)
Sequence (Q5JV73 12-100): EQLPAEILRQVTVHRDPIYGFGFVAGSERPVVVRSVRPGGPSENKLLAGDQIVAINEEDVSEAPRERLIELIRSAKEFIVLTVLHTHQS

Row | Binder | pKd
11 | B1 | below the threshold
12 | B2 | below the threshold

biological target: ARHGEF12, Q9NZN5-2; experiment: holdup assay; parameters: key: below the threshold = too weak to quantify, mostly under pKd 3.1 to 4; settings: plain residues with an end cap or a label only (N-terminal biotin on a linker: ado-ado)
Sequence (Q9NZN5 other isoform, or with tags, fused parts or gaps): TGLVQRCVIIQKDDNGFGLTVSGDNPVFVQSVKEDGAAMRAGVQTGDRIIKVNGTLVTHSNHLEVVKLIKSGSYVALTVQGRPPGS

Row | Binder | pKd
13 | B1 | 4.03
14 | B2 | 4.26

biological target: DLG2_2, Q15700; experiment: holdup assay; parameters: key: below the threshold = too weak to quantify, mostly under pKd 3.1 to 4; settings: plain residues with an end cap or a label only (N-terminal biotin on a linker: ado-ado)
Sequence (Q15700 189-283): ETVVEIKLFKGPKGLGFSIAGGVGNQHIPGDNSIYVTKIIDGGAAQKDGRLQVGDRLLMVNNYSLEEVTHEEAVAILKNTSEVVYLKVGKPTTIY

Row | Binder | pKd
15 | B1 | 4.06
16 | B2 | 5.17

biological target: T4, LNX2_3, Q8N448; experiment: holdup assay; parameters: key: below the threshold = too weak to quantify, mostly under pKd 3.1 to 4; settings: plain residues with an end cap or a label only (N-terminal biotin on a linker: ado-ado)

Row | Binder | pKd
17 | B1 | below the threshold
18 | B2 | below the threshold

biological target: LIMK2, P53671; experiment: holdup assay; parameters: key: below the threshold = too weak to quantify, mostly under pKd 3.1 to 4; settings: plain residues with an end cap or a label only (N-terminal biotin on a linker: ado-ado)
Sequence (P53671 143-248): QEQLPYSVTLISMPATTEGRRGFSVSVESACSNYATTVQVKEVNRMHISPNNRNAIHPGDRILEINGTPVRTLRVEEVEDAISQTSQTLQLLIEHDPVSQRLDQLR

Row | Binder | pKd
19 | B1 | below the threshold
20 | B2 | below the threshold

biological target: Inadl_3, Q8NI35; experiment: holdup assay; parameters: key: below the threshold = too weak to quantify, mostly under pKd 3.1 to 4; settings: plain residues with an end cap or a label only (N-terminal biotin on a linker: ado-ado)
Sequence (Q8NI35 359-469): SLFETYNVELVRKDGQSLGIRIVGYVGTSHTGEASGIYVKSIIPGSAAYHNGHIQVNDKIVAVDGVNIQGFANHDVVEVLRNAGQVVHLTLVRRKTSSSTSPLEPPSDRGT

Row | Binder | pKd
21 | B1 | below the threshold
22 | B2 | below the threshold

biological target: MAST2, Q6P0Q8; experiment: holdup assay; parameters: key: below the threshold = too weak to quantify, mostly under pKd 3.1 to 4; settings: plain residues with an end cap or a label only (N-terminal biotin on a linker: ado-ado)
Sequence (Q6P0Q8 1099-1202): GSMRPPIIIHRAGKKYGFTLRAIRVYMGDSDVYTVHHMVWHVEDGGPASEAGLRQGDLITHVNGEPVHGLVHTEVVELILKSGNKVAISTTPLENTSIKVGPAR

Row | Binder | pKd
23 | B1 | 5.02
24 | B2 | 5.05

biological target: T5, RADIL, Q96JH8; experiment: holdup assay; parameters: key: below the threshold = too weak to quantify, mostly under pKd 3.1 to 4; settings: plain residues with an end cap or a label only (N-terminal biotin on a linker: ado-ado)

Row | Binder | pKd
25 | B1 | below the threshold
26 | B2 | 3.64

biological target: T6, CARD11, Q9BXL7; experiment: holdup assay; parameters: key: below the threshold = too weak to quantify, mostly under pKd 3.1 to 4; settings: plain residues with an end cap or a label only (N-terminal biotin on a linker: ado-ado)

Row | Binder | pKd
27 | B1 | below the threshold
28 | B2 | below the threshold

biological target: T7, ARHGAP21, Q5T5U3; experiment: holdup assay; parameters: key: below the threshold = too weak to quantify, mostly under pKd 3.1 to 4; settings: plain residues with an end cap or a label only (N-terminal biotin on a linker: ado-ado)

Row | Binder | pKd
29 | B1 | below the threshold
30 | B2 | 3.92

biological target: SCRIB_1, Q14160; experiment: holdup assay; parameters: key: below the threshold = too weak to quantify, mostly under pKd 3.1 to 4; settings: plain residues with an end cap or a label only (N-terminal biotin on a linker: ado-ado)
Sequence (Q14160 718-814): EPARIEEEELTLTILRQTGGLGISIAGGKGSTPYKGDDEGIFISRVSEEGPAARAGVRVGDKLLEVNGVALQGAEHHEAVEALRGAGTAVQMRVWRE

Row | Binder | pKd
31 | B1 | 3.81
32 | B2 | 3.76

biological target: T8, LIN7A, O14910; experiment: holdup assay; parameters: key: below the threshold = too weak to quantify, mostly under pKd 3.1 to 4; settings: plain residues with an end cap or a label only (N-terminal biotin on a linker: ado-ado)

Row | Binder | pKd
33 | B1 | below the threshold
34 | B2 | below the threshold

biological target: Inadl_10, Q8NI35; experiment: holdup assay; parameters: key: below the threshold = too weak to quantify, mostly under pKd 3.1 to 4; settings: plain residues with an end cap or a label only (N-terminal biotin on a linker: ado-ado)
Sequence (Q8NI35 1673-1763): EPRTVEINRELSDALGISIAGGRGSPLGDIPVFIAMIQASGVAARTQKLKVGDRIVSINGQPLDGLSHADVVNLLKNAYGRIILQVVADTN

Row | Binder | pKd
35 | B1 | below the threshold
36 | B2 | below the threshold

biological target: T9, PDZRN3_1, Q9UPQ7; experiment: holdup assay; parameters: key: below the threshold = too weak to quantify, mostly under pKd 3.1 to 4; settings: plain residues with an end cap or a label only (N-terminal biotin on a linker: ado-ado)

Row | Binder | pKd
37 | B1 | 4.24
38 | B2 | below the threshold

biological target: GIPC2, Q8TF65; experiment: holdup assay; parameters: key: below the threshold = too weak to quantify, mostly under pKd 3.1 to 4; settings: plain residues with an end cap or a label only (N-terminal biotin on a linker: ado-ado)
Sequence (Q8TF65 112-203): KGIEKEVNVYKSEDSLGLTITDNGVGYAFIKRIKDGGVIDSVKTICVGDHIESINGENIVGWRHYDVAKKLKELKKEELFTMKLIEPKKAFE

Row | Binder | pKd
39 | B1 | below the threshold
40 | B2 | below the threshold

biological target: Inadl_8, Q8NI35; experiment: holdup assay; parameters: key: below the threshold = too weak to quantify, mostly under pKd 3.1 to 4; settings: plain residues with an end cap or a label only (N-terminal biotin on a linker: ado-ado)
Sequence (Q8NI35 1425-1530): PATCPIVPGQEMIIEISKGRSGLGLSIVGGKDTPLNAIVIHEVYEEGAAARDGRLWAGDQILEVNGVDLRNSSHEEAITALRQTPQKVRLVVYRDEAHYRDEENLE

Row | Binder | pKd
41 | B1 | 4.15
42 | B2 | 3.62

biological target: SNX27, Q96L92; experiment: holdup assay; parameters: key: below the threshold = too weak to quantify, mostly under pKd 3.1 to 4; settings: plain residues with an end cap or a label only (N-terminal biotin on a linker: ado-ado)

Row | Binder | pKd
43 | B1 | 4.45
44 | B2 | 5.15

biological target: MAGI2_6, Q86UL8; experiment: holdup assay; parameters: key: below the threshold = too weak to quantify, mostly under pKd 3.1 to 4; settings: plain residues with an end cap or a label only (N-terminal biotin on a linker: ado-ado)
Sequence (Q86UL8 1141-1229): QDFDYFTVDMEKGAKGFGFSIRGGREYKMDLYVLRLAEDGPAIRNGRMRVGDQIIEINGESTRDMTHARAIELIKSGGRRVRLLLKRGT

Row | Binder | pKd
45 | B1 | 4.32
46 | B2 | below the threshold

biological target: NHERF4_1, Q86UT5-2; experiment: holdup assay; parameters: key: below the threshold = too weak to quantify, mostly under pKd 3.1 to 4; settings: plain residues with an end cap or a label only (N-terminal biotin on a linker: ado-ado)
Sequence (Q86UT5 other isoform, or with tags, fused parts or gaps): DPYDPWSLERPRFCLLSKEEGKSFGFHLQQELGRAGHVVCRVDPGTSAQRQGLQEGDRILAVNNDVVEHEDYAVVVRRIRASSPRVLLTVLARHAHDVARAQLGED

Row | Binder | pKd
47 | B1 | below the threshold
48 | B2 | below the threshold

biological target: GRIP2_6, Q9C0E4; experiment: holdup assay; parameters: key: below the threshold = too weak to quantify, mostly under pKd 3.1 to 4; settings: plain residues with an end cap or a label only (N-terminal biotin on a linker: ado-ado)
Sequence (Q9C0E4 648-740): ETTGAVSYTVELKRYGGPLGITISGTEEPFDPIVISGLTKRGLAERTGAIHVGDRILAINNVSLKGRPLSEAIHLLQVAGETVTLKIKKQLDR

Row | Binder | pKd
49 | B1 | below the threshold
50 | B2 | below the threshold

biological target: MAGI2_5, Q86UL8; experiment: holdup assay; parameters: key: below the threshold = too weak to quantify, mostly under pKd 3.1 to 4; settings: plain residues with an end cap or a label only (N-terminal biotin on a linker: ado-ado)
Sequence (Q86UL8 915-1017): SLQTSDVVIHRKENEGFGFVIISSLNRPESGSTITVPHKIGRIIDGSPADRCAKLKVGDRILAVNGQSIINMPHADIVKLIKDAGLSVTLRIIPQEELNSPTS

Row | Binder | pKd
51 | B1 | 4.06
52 | B2 | below the threshold

biological target: LDB3, O75112; experiment: holdup assay; parameters: key: below the threshold = too weak to quantify, mostly under pKd 3.1 to 4; settings: plain residues with an end cap or a label only (N-terminal biotin on a linker: ado-ado)
Sequence (O75112 1-94): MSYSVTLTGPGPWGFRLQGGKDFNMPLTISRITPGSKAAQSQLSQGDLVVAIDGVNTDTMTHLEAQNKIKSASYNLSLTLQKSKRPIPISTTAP

Row | Binder | pKd
53 | B1 | below the threshold
54 | B2 | below the threshold

biological target: GRASP, Q7Z6J2; experiment: holdup assay; parameters: key: below the threshold = too weak to quantify, mostly under pKd 3.1 to 4; settings: plain residues with an end cap or a label only (N-terminal biotin on a linker: ado-ado)
Sequence (Q7Z6J2 96-193): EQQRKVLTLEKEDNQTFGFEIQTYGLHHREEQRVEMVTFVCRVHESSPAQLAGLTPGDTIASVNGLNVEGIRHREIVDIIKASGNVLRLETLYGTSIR

Row | Binder | pKd
55 | B1 | 3.95
56 | B2 | 4.41

biological target: DLG4_1, P78352; experiment: holdup assay; parameters: key: below the threshold = too weak to quantify, mostly under pKd 3.1 to 4; settings: plain residues with an end cap or a label only (N-terminal biotin on a linker: ado-ado)
Sequence (P78352 62-152): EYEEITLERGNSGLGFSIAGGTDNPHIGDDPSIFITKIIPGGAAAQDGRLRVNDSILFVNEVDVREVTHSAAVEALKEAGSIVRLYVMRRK

Row | Binder | pKd
57 | B1 | 4.13
58 | B2 | 4.78
